Experimental data published in the supplement of paper PMC9112550, “Optimization of the antimicrobial peptide Bac7 by deep mutational scanning” (BMC Biology, 2022).

Test system: Escherichia coli TOP10
Assay: shrunken log2 fold change of peptide-encoding DNA abundance (4.5 h post-induction vs induction); higher = less antimicrobial activity (less host growth inhibition)
Conditions: time post-induction: 4.5 h; library: site-saturation at positions 5, 18, 19, 20
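Note: peptides expressed intracellularly from a pBAD plasmid library in pooled LB shake-flask culture, induced with 0.3% L-arabinose, DNA abundance read by NGS, three biological replicates, DESeq2 with apeglm shrinkage.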

Sequence	shrunken log2 fold change
RRIRDRPPRLPRPRPRPLWTPRP	0.163
RRIRCRPPRLPRPRPRPMRQPRP	0.076
RRIRHRPPRLPRPRPRPALKPRP	-0.322
RRIRRRPPRLPRPRPRPMTWPRP	-0.154
RRIRDRPPRLPRPRPRPFEKPRP	0.00649
RRIRIRPPRLPRPRPRPGVLPRP	-0.0531
RRIRIRPPRLPRPRPRPGWAPRP	0.22
RRIRVRPPRLPRPRPRPKKFPRP	-0.0429
RRIRYRPPRLPRPRPRPWSSPRP	0.0132
RRIRARPPRLPRPRPRPIATPRP	1.21
RRIRFRPPRLPRPRPRPSTMPRP	-0.391
RRIRRRPPRLPRPRPRPHPHPRP	0.147
RRIRARPPRLPRPRPRPVSSPRP	0.155
RRIRFRPPRLPRPRPRPIFSPRP	-0.341
RRIRIRPPRLPRPRPRPVLAPRP	-0.0133
RRIRCRPPRLPRPRPRPHCRPRP	-0.0478
RRIRHRPPRLPRPRPRPKSWPRP	0.26
RRIRHRPPRLPRPRPRPCFHPRP	-0.48
RRIRNRPPRLPRPRPRPEKEPRP	-0.159
RRIRWRPPRLPRPRPRPWVHPRP	-0.597
RRIRQRPPRLPRPRPRPMFKPRP	-0.572
RRIRQRPPRLPRPRPRPQCHPRP	-0.0344
RRIRFRPPRLPRPRPRPSDIPRP	-0.385
RRIRQRPPRLPRPRPRPSSIPRP	-0.0146
RRIRLRPPRLPRPRPRPIIQPRP	-0.439

Sequence	shrunken log2 fold change
RRIRLRPPRLPRPRPRPCFVPRP	-0.392
RRIRKRPPRLPRPRPRPFPSPRP	0.175
RRIRDRPPRLPRPRPRPWLGPRP	0.109
RRIRTRPPRLPRPRPRPTSWPRP	0.139
RRIRYRPPRLPRPRPRPTWGPRP	-0.19
RRIRFRPPRLPRPRPRPVYFPRP	-0.399
RRIRSRPPRLPRPRPRPNVDPRP	0.0085
RRIRDRPPRLPRPRPRPVADPRP	0.22
RRIRMRPPRLPRPRPRPKIQPRP	0.158
RRIRHRPPRLPRPRPRPGIIPRP	-0.0698
RRIRYRPPRLPRPRPRPGESPRP	0.224
RRIRWRPPRLPRPRPRPWMYPRP	-0.02
RRIRTRPPRLPRPRPRPQIYPRP	-0.179
RRIRMRPPRLPRPRPRPMGEPRP	0.792
RRIRVRPPRLPRPRPRPPKCPRP	-0.173
RRIRPRPPRLPRPRPRPGVSPRP	-0.0412
RRIRLRPPRLPRPRPRPSRPPRP	0.233
RRIRFRPPRLPRPRPRPVHTPRP	-0.0075
RRIRCRPPRLPRPRPRPNKNPRP	-0.344
RRIRCRPPRLPRPRPRPSYRPRP	-0.242
RRIRWRPPRLPRPRPRPAIHPRP	0.039
RRIRARPPRLPRPRPRPNTNPRP	-0.0214
RRIRYRPPRLPRPRPRPNNPPRP	-0.359
RRIRRRPPRLPRPRPRPAARPRP	0.287
RRIRSRPPRLPRPRPRPLAIPRP	-0.0883

Sequence	shrunken log2 fold change
RRIRCRPPRLPRPRPRPDCKPRP	-0.392
RRIRRRPPRLPRPRPRPQTLPRP	0.101
RRIRPRPPRLPRPRPRPGELPRP	0.192
RRIRCRPPRLPRPRPRPNDAPRP	-0.12
RRIRSRPPRLPRPRPRPNWCPRP	0.0144
RRIRIRPPRLPRPRPRPKHWPRP	0.357
RRIRRRPPRLPRPRPRPCHAPRP	-0.0577
RRIRFRPPRLPRPRPRPVVVPRP	-0.0228
RRIRRRPPRLPRPRPRPKEFPRP	0.0689
RRIRVRPPRLPRPRPRPTHVPRP	0.0149
RRIRNRPPRLPRPRPRPDVGPRP	-0.251
RRIRIRPPRLPRPRPRPKNMPRP	-0.577
RRIRMRPPRLPRPRPRPLVEPRP	2.17
RRIRLRPPRLPRPRPRPFCTPRP	-0.105
RRIRGRPPRLPRPRPRPGAYPRP	0.339
RRIRERPPRLPRPRPRPAEDPRP	0.0107
RRIRLRPPRLPRPRPRPGKQPRP	0.0284
RRIRHRPPRLPRPRPRPCCEPRP	-0.366
RRIRNRPPRLPRPRPRPQKWPRP	-0.0202
RRIRNRPPRLPRPRPRPPGVPRP	0.653
RRIRVRPPRLPRPRPRPFIIPRP	-0.442
RRIRCRPPRLPRPRPRPYHYPRP	-0.364
RRIRSRPPRLPRPRPRPWVPPRP	0.177
RRIRPRPPRLPRPRPRPRLNPRP	0.307
RRIRSRPPRLPRPRPRPPAWPRP	0.436

Sequence	shrunken log2 fold change
RRIRARPPRLPRPRPRPPNHPRP	0.305
RRIRHRPPRLPRPRPRPCYRPRP	-0.121
RRIRTRPPRLPRPRPRPPDYPRP	-0.0981
RRIRARPPRLPRPRPRPWIPPRP	-0.161
RRIRLRPPRLPRPRPRPFWIPRP	-0.283
RRIRWRPPRLPRPRPRPTSIPRP	-0.22
RRIRERPPRLPRPRPRPFISPRP	-0.0623
RRIRERPPRLPRPRPRPLFLPRP	-0.306
RRIRVRPPRLPRPRPRPHWCPRP	-0.144
RRIRVRPPRLPRPRPRPSQDPRP	-0.221
RRIRHRPPRLPRPRPRPQFFPRP	-0.619
RRIRYRPPRLPRPRPRPMHSPRP	-1.02
RRIRTRPPRLPRPRPRPPQSPRP	0.441
RRIRWRPPRLPRPRPRPDECPRP	-0.012
RRIRWRPPRLPRPRPRPIRFPRP	-0.0926
RRIRVRPPRLPRPRPRPMLAPRP	0.446
RRIRIRPPRLPRPRPRPIFRPRP	-0.013
RRIRSRPPRLPRPRPRPRKFPRP	0.015
RRIRMRPPRLPRPRPRPCSRPRP	0.296
RRIRLRPPRLPRPRPRPQSKPRP	-0.224
RRIRPRPPRLPRPRPRPTSLPRP	0.044
RRIRFRPPRLPRPRPRPKSPPRP	-0.143
RRIRYRPPRLPRPRPRPYIFPRP	-0.322
RRIRVRPPRLPRPRPRPHLHPRP	-0.279
RRIRDRPPRLPRPRPRPCQFPRP	0.0215

Sequence	shrunken log2 fold change
RRIRVRPPRLPRPRPRPMVHPRP	0.141
RRIRIRPPRLPRPRPRPQEIPRP	-0.581
RRIRTRPPRLPRPRPRPLHQPRP	0.0302
RRIRRRPPRLPRPRPRPMDWPRP	0.516
RRIRARPPRLPRPRPRPIVMPRP	-0.0831
RRIRWRPPRLPRPRPRPWRLPRP	-0.172
RRIRARPPRLPRPRPRPMIDPRP	0.535
RRIRKRPPRLPRPRPRPKRNPRP	0.689
RRIRFRPPRLPRPRPRPLWMPRP	-0.0523
RRIRNRPPRLPRPRPRPDIYPRP	-0.265
RRIRDRPPRLPRPRPRPPLFPRP	0.5
RRIRQRPPRLPRPRPRPGNYPRP	-0.222
RRIRPRPPRLPRPRPRPLREPRP	0.783
RRIRFRPPRLPRPRPRPMHLPRP	0.00575
RRIRRRPPRLPRPRPRPQQTPRP	-0.0146
RRIRCRPPRLPRPRPRPRMDPRP	-0.0539
RRIRFRPPRLPRPRPRPGRSPRP	0.183
RRIRKRPPRLPRPRPRPMCVPRP	0.208
RRIRGRPPRLPRPRPRPIHSPRP	-0.441
RRIRGRPPRLPRPRPRPKGLPRP	0.016
RRIRDRPPRLPRPRPRPYLYPRP	-0.0408
RRIRERPPRLPRPRPRPVITPRP	-0.145
RRIRIRPPRLPRPRPRPWSGPRP	-0.139
RRIRFRPPRLPRPRPRPDEEPRP	-0.00623
RRIRSRPPRLPRPRPRPLKKPRP	0.0577

Sequence	shrunken log2 fold change
RRIRCRPPRLPRPRPRPDSTPRP	-0.235
RRIRMRPPRLPRPRPRPFACPRP	-0.1
RRIRDRPPRLPRPRPRPPFTPRP	1.76
RRIRERPPRLPRPRPRPVRTPRP	0.496
RRIRMRPPRLPRPRPRPAIGPRP	0.0174
RRIRTRPPRLPRPRPRPTTIPRP	-0.111
RRIRVRPPRLPRPRPRPMIFPRP	-0.213
RRIRMRPPRLPRPRPRPVGCPRP	0.972
RRIRERPPRLPRPRPRPPSCPRP	0.103
RRIRHRPPRLPRPRPRPWETPRP	-0.141
RRIRFRPPRLPRPRPRPCAEPRP	0.111
RRIRVRPPRLPRPRPRPGGWPRP	0.72
RRIRCRPPRLPRPRPRPDNNPRP	-0.661
RRIRNRPPRLPRPRPRPLENPRP	-0.0075
RRIRQRPPRLPRPRPRPMYNPRP	-0.545
RRIRIRPPRLPRPRPRPNCPPRP	-0.231
RRIRNRPPRLPRPRPRPKWCPRP	-0.00686
RRIRKRPPRLPRPRPRPENAPRP	0.116
RRIRHRPPRLPRPRPRPDWVPRP	-0.0196
RRIRHRPPRLPRPRPRPESHPRP	-0.0331
RRIRARPPRLPRPRPRPATTPRP	0.681
RRIRGRPPRLPRPRPRPNAHPRP	0.754
RRIRMRPPRLPRPRPRPEALPRP	3.81
RRIRYRPPRLPRPRPRPAYHPRP	-0.321
RRIRYRPPRLPRPRPRPKKVPRP	-0.141
